Tests used:
[1] = target: actin filaments (F-actin) of Acanthamoeba castellani cytoplasmic actin (Acanthamoeba castellani); experiment: single-molecule TIRF microscopy
[2] = target: actin filaments (F-actin) of Acanthamoeba castellani cytoplasmic actin (Acanthamoeba castellani); experiment: single-filament TIRF elongation rate against VASP concentration

Substance | dwell time at the growing barbed end with 1 µM actin [1] [s] | dwell time τ1 (single exponential fit without the static molecules) [1] [s] | dwell time τ1 on filament regions with p(ADP-Pi) < 0.5 [1] [s] | dwell time τ1 on filament regions with p(ADP-Pi) > 0.5 [1] [s] | dwell time τ1 on the sides of growing filaments [1] [s] | dwell time τ2 (static binding; double exponential fit of all interactions) [1] [s] | Kd [2] [nM]
Cy3-KCK-hVASP^1-380aa (C7S, C64S, C334A) (from UniProt P50552 1-380) (natural protein) | 1.45 | 0.44 | 1 | 0.93 | 0.22 | 4.99 | 
human VASP^1-380aa, unlabeled wild type (untagged hVASP^1-380aa) (from UniProt P50552 1-380) (natural protein) |  |  |  |  |  |  | 9.2

From article PMC3003327
